Experimental data published in patent US8029979B2, “Method for determining the substrate specificity of an enzyme” (JPT Peptide Technologies GmbH, priority 2001, dated 2011).

Biological target: T1, protein kinase A (Bos taurus, UniProt P00517)
T1 construct: purchased Sigma P26452 as printed
Assay: Incubation of modified glass surface (960 spots) with protein kinase A (FIG. 7, Example 27)
Assay type: biochemical
Details: aldehyde-functionalised glass, amino-oxy linkage, protein kinase A 10 U/mL, 30 min at 25° C.
Procedure: FIG. 7. A glass surface modified with the peptide Dpr(Aoa)-Leu-Arg-Arg-Ala-Ser-Leu-Gly-NH2 (see Example 22) was first pre-incubated for 10 minutes using 10 ml of 100 μM ATP solution in 50 mM of sodium phosphate buffer pH 7.5. […] After incubation for 30 min at 25° C. the phosphorylation of the corresponding peptides was detected using a FUJIFILM PhosphorImager (see Example 14). […] It is furthermore clear that the resolution of the PhosphorImager used here is sufficient to analyse more than 950 measurement points per biochip.
A glass surface modified with the peptide Dpr(Aoa)-Leu-Arg-Arg-Ala-Ser-Leu-Gly-NH2 (see Example 22) was incubated with 10 mL of 100 μM ATP in kinase buffer (50 mM tris-HCl, 150 mM NaCl, 30 mM MgCl2, 4 mM DTT, 2 mM EGTA, pH 7.5) for 10 minutes at room temperature. The glass surface was dried and a second unmodified glass surface of the same dimensions was then placed on the peptide-modified glass surface. […] Incubation was then carried out for 30 min at room temperature in an almost water-saturated atmosphere. […]
After drying the glass surface the quantity of radioactive phosphate incorporated in the glass-surface-bound peptides was determined using a PhosphorImager system (FLA-3000, FUJIFILM) (see FIG. 7).

## Dpr(Aoa)-Leu-Arg-Arg-Ala-Ser-Leu-Gly-NH2 ({Dpr(Aoa)}-LRRASLG-NH2)
  linking of the immobilised kinase substrate tolerated by protein kinase A: tolerated by the protein kinase A
